In patent CN113388029A (WUHAN INST VIROLOGY CAS, dated 2021):

B1: Fab-F1-A3 (Fab, V domains shown)
VH: QVQLVESGGGLVQPGGSLRLSCAASGFTVSSNYMSWVRQAPGKGLEWVSVIYSGGSTYYADSVKGRFTISRDNSKNTLYLQMNSLRAEDTAVYYCARGDGSDDYYYGMDVWGQGTTVTVSS
VL: QSVVTQPPSVSGAQGQRVFISCTGNGANIGMGYDVHWYQQLPGRAPKLLIFGNTNRPSGVPDRFSASRSGTSASLAITGLQTADEADYYCQSYDGNLRASVFGGGTKLTVLG
notes: also called 抗体Fab F1-A3
B2: IgG-F1-A3 (antibody, V domains shown)
VH: QVQLVESGGGLVQPGGSLRLSCAASGFTVSSNYMSWVRQAPGKGLEWVSVIYSGGSTYYADSVKGRFTISRDNSKNTLYLQMNSLRAEDTAVYYCARGDGSDDYYYGMDVWGQGTTVTVSS
VL: QSVVTQPPSVSGAQGQRVFISCTGNGANIGMGYDVHWYQQLPGRAPKLLIFGNTNRPSGVPDRFSASRSGTSASLAITGLQTADEADYYCQSYDGNLRASVFGGGTKLTVLG

Legend:
[1] = molecular target: T1, 新型冠状病毒囊膜蛋白受体结合域 WH-RBD-TFc (SARS-CoV-2 S蛋白 RBD 319-541 - 凝血酶位点 - 人源IgG1 Fc) (SARS-CoV-2; human, UniProt P0DTC2 319-541); experiment: ELISA, WH-RBD-TFc coated at 4 μg/mL, Fab titrated, detected with HRP anti-FLAG antibody
[2] = molecular target: T1, 新型冠状病毒囊膜蛋白受体结合域 WH-RBD-TFc (SARS-CoV-2 …); experiment: ELISA, WH-RBD-TFc coated at 4 μg/mL, IgG titrated, detected with HRP goat anti-human IgG (Fab)
[3] = molecular target: T1, 新型冠状病毒囊膜蛋白受体结合域 WH-RBD-TFc (SARS-CoV-2 …); experiment: BLI, biotinylated WH-RBD-TFc immobilised (40 μg/ml), IgG titrated in solution (both partners bivalent)

Binder	EC50 [1] [nM]	EC50 [2] [nM]	Kd [3] [nM]
B1	4	–	–
B2	–	~0.78	0.013
